Residue numbers refer to the chain shown, from its start. Names and notes keep the numbering of the source.
Legend:
[1] = test system: TNFR-2-expressing wild-type (4E3) Jurkat cells
Experimental: Cells were harvested and analyzed by PI exclusion on FACS 16 hours post-stimulation and cell loss was calculated as described in Example 1 (infra).

RIP = assay: Western blot of RIP protein expression in cells treated with GA; assay type: cell-based
[2] = test system: TNFR-2+ RIP -/- Jurkat cells (R1.1); assay: TNF cytotoxic assay (cell loss by PI exclusion on FACS), TNFR-2+ RIP -/- cells; assay type: cell-based; details: for restoration of response to TNF (TNF killing) by transfected RIP constructs: TNFR-2+ RIP -/- cells reconstituted with RIP mutants, stimulated with TNF
Description: The results are representative of three experiments.

caspase-8 -/- J3.2 cells = assay: TNF cytotoxic assay (cell loss by PI exclusion on FACS), caspase-8 -/- J3.2 cells; details: for TNF-induced programmed necrosis, transfected kinase-inactive constructs: caspase-8 -/- J3.2 cells co-transfected with pEGFP-N1, 10 ng/ml rhTNFα, 16 hours, GFP positive cells
FADD -/- I42 cells = assay: TNF cytotoxic assay (cell loss by PI exclusion on FACS), FADD -/- I42 cells; assay type: cell-based; details: FADD -/- cells (I42) transiently transfected; TNF 12 hours; GFP+ cells
Experimental: Cells were stimulated with, TNF or anti-Fas antibody (CH11) for 12 hours and cell loss was analyzed on the GFP+ cells by PI exclusion on FACS.
FIG. 8F is a bar graph depicting the results of experiments in which FADD -/- I42 cells and caspase-8 -/- J3.2 cells (both are TNFR-2+) were stimulated with TNF in the presence or absence of zVAD-fmk for 16 hours.

COC1=C2C[C@@H](C)C[C@H](OC)[C@H](O)[C@@H](C)/C=C(\C)[C@H](OC(N)=O)[C@@H](OC)/C=C\C=C(/C)C(=O)NC(=CC1=O)C2=O [geldanamycin]
cell viability, compound alone [1]: no effect | reduction in RIP protein level (RIP): > 90% | TNF-induced death (cell loss) ([2]; TNFR-2+ RIP -/- cells (R1.1), 10 ng/ml rhTNFα, 16 hours, or 0.5 mM GA): no effect

B1: RIPn: N-terminal cleavage product of RIP (amino acids 1-324) (protein, UniProt Q13546 1-324, looked up, fragment)
chain: MQPDMSLNVIKMKSSDFLESAELDSGGFGKVSLCFHRTQGLMIMKTVYKGPNCIEHNEALLEEAKMMNRLRHSRVVKLLGVIIEEGKYSLVMEYMEKGNLMHVLKAEMSTPLSVKGRIILEIIEGMCYLHGKGVIHKDLKPENILVDNDFHIKIADLGLASFKMWSKLNNEEHNELREVDGTAKKNGGTLYYMAPEHLNDVNAKPTEKSDVYSFAVVLWAIFANKEPYENAICEQQLIMCIKSGNRPDVDDITEYCPREIISLMKLCWEANPEARPTFPGIEEKFRPFYLSQLEESVEEDVKSLKKEYSNENAVVKRMQSLQLD
restoration of response to TNF (TNF killing) by transfected RIP constructs [2]: failed to restore

B2: p35: known apoptosis inhibitor, transfected plasmid (protein, UniProt P08160 1-299, looked up)
Early 35 kDa protein: MCVIFPVEIDVSQTIIRDCQVDKQTRELVYINKIMNTQLTKPVLMMFNISGPIRSVTRKNNNLRDRIKSKVDEQFDQLERDYSDQMDGFHDSIKYFKDEHYSVSCQNGSVLKSKFAKILKSHDYTDKKSIEAYEKYCLPKLVDERNDYYVAVCVLKPGFENGSNQVLSFEYNPIGNKVIVPFAHEINDTGLYEYDVVAYVDSVQFDGEQFEEFVQSLILPSSFKNSEKVLYYNEASKNKSMIYKALEFTTESSWGKSEKYNWKIFCNGFIYDKKSKVLYVKLHNVTSALNKNVILNTIK
TNF-induced programmed necrosis, transfected apoptosis inhibitors (caspase-8 -/- J3.2 cells; caspase 8 -/- J3.2 cells transfected with plasmids, 12 hours stimulation with TNF): failed to confer protection

B3: kinase-inactive form of apoptosis signaling kinase ASK1: kinase inactive version of ASK1, expressed from transfected plasmid (protein, UniProt Q99683 1-1374, looked up, variant K709R)
Mitogen-activated protein …: MSTEADEGITFSVPPFAPSGFCTIPEGGICRRGGAAAVGEGEEHQLPPPPPGSFWNVESAAAPGIGCPAATSSSSATRGRGSSVGGGSRRTTVAYVINEASQGQLVVAESEALQSLREACETVGATLETLHFGKLDFGETTVLDRFYNADIAVVEMSDAFRQPSLFYHLGVRESFSMANNIILYCDTNSDSLQSLKEIICQKNTMCTGNYTFVPYMITPHNKVYCCDSSFMKGLTELMQPNFELLLGPICLPLVDRFIQLLKVAQASSSQYFRESILNDIRKARNLYTGKELAAELARIRQRVDNIEVLTADIVINLLLSYRDIQDYDSIVKLVETLEKLPTFDLASHHHVKFHYAFALNRRNLPGDRAKALDIMIPMVQSEGQVASDMYCLVGRIYKDMFLDSNFTDTESRDHGASWFKKAFESEPTLQSGINYAVLLLAAGHQFESSFELRKVGVKLSSLLGKKGNLEKLQSYWEVGFFLGASVLANDHMRVIQASEKLFKLKTPAWYLKSIVETILIYKHFVKLTTEQPVAKQELVDFWMDFLVEATKTDVTVVRFPVLILEPTKIYQPSYLSINNEVEEKTISIWHVLPDDKKGIHEWNFSASSVRGVSISKFEERCCFLYVLHNSDDFQIYFCTELHCKKFFEMVNTITEEKGRSTEEGDCESDLLEYDYEYDENGDRVVLGKGTYGIVYAGRDLSNQVRIAIREIPERDSRYSQPLHEEIALHKHLKHKNIVQYLGSFSENGFIKIFMEQVPGGSLSALLRSKWGPLKDNEQTIGFYTKQILEGLKYLHDNQIVHRDIKGDNVLINTYSGVLKISDFGTSKRLAGINPCTETFTGTLQYMAPEIIDKGPRGYGKAADIWSLGCTIIEMATGKPPFYELGEPQAAMFKVGMFKVHPEIPESMSAEAKAFILKCFEPDPDKRACANDLLVDEFLKVSSKKKKTQPKLSALSAGSNEYLRSISLPVPVLVEDTSSSSEYGSVSPDTELKVDPFSFKTRAKSCGERDVKGIRTLFLGIPDENFEDHSAPPSPEEKDSGFFMLRKDSERRATLHRILTEDQDKIVRNLMESLAQGAEEPKLKWEHITTLIASLREFVRSTDRKIIATTLSKLKLELDFDSHGISQVQVVLFGFQDAVNKVLRNHNIKPHWMFALDSIIRKAVQTAITILVPELRPHFSLASESDTADQEDLDVEDDHEEQPSNQTVRRPQAVIEDAVATSGVSTLSSTVSHDSQSAHRSLNVQLGRMKIETNRLLEELVRKEKELQALLHRAIEEKDQEIKHLKLKSQPIEIPELPVFHLNSSGTNTEDSELTDWLRVNGADEDTISRFLAEDYTLLDVLYYVTRDDLKCLRLRGGMLCTLWKAIIDFRNKQT
TNF-induced programmed necrosis, transfected kinase-inactive constructs (caspase-8 -/- J3.2 cells): not

B4: full-length FADD: full-length FADD transiently transfected into FADD -/- cells (protein, UniProt Q13158 1-208, looked up)
chain: MDPFLVLLHSVSSSLSSSELTELKFLCLGRVGKRKLERVQSGLDLFSMLLEQNDLEPGHTELLRELLASLRRHDLLRRVDDFEAGAAAGAAPGEEDLCAAFNVICDNVGKDWRRLARQLKVSDTKIDSIEDRYPRNLTERVRESLRIWKNTEKENATVAHLVGALRSCQMNLVADLVQEVQQARDLQNRSGAMSPMSWNSDASTSEAS
modifications: full-length
notes: full-length FADD transiently transfected into FADD -/- cells
TNF-induced programmed necrosis after reconstitution of FADD (FADD -/- I42 cells): suppression

B5: kinase-inactive RIP: kinase inactive version of RIP (K45A mutation), expressed from transfected plasmid (protein, UniProt Q13546 1-671, looked up, variant K45A)
Receptor-interacting …: MQPDMSLNVIKMKSSDFLESAELDSGGFGKVSLCFHRTQGLMIMATVYKGPNCIEHNEALLEEAKMMNRLRHSRVVKLLGVIIEEGKYSLVMEYMEKGNLMHVLKAEMSTPLSVKGRIILEIIEGMCYLHGKGVIHKDLKPENILVDNDFHIKIADLGLASFKMWSKLNNEEHNELREVDGTAKKNGGTLYYMAPEHLNDVNAKPTEKSDVYSFAVVLWAIFANKEPYENAICEQQLIMCIKSGNRPDVDDITEYCPREIISLMKLCWEANPEARPTFPGIEEKFRPFYLSQLEESVEEDVKSLKKEYSNENAVVKRMQSLQLDCVAVPSSRSNSATEQPGSLHSSQGLGMGPVEESWFAPSLEHPQEENEPSLQSKLQDEANYHLYGSRMDRQTKQQPRQNVAYNREEERRRRVSHDPFAQQRPYENFQNTEGKGTAYSSAASHGNAVHQPSGLTSQPQVLYQNNGLYSSHGFGTRPLDPGTAGPRVWYRPIPSHMPSLHNIPVPETNYLGNTPTMPFSSLPPTDESIKYTIYNSTGIQIGAYNYMEIGGTSSSLLDSTNTNFKEEPAAKYQAIFDNTTSLTDKHLDPIRENLGKHWKNCARKLGFTQSQIDEIDHDYERDGLKEKVYQMLQKWVMREGIKGATVGKLAQALHQCSRIDLLSSLIYVSQN
restoration of response to TNF (TNF killing) by transfected RIP constructs [2]: restored | TNF-induced programmed necrosis, transfected kinase-inactive constructs (caspase-8 -/- J3.2 cells): strongly suppressed

B6: wild-type RIP: wild-type receptor-interacting protein expressed in RIP -/- cells (protein, UniProt Q13546 1-671, looked up)
Receptor-interacting …: B5 Receptor-interacting … with A45K
restoration of response to TNF (TNF killing) by transfected RIP constructs [2]: potently restored

B7: RIP-D324A: non-cleavable mutant of RIP (protein, UniProt Q13546 1-671, looked up, variant D324A)
Receptor-interacting …: B5 Receptor-interacting … with A45K, D324A
restoration of response to TNF (TNF killing) by transfected RIP constructs [2]: potently restored

B8: RIPc: C-terminal fragment of RIP (amino acids 325-671) (protein, UniProt Q13546 325-671, looked up, fragment)
chain: CVAVPSSRSNSATEQPGSLHSSQGLGMGPVEESWFAPSLEHPQEENEPSLQSKLQDEANYHLYGSRMDRQTKQQPRQNVAYNREEERRRRVSHDPFAQQRPYENFQNTEGKGTAYSSAASHGNAVHQPSGLTSQPQVLYQNNGLYSSHGFGTRPLDPGTAGPRVWYRPIPSHMPSLHNIPVPETNYLGNTPTMPFSSLPPTDESIKYTIYNSTGIQIGAYNYMEIGGTSSSLLDSTNTNFKEEPAAKYQAIFDNTTSLTDKHLDPIRENLGKHWKNCARKLGFTQSQIDEIDHDYERDGLKEKVYQMLQKWVMREGIKGATVGKLAQALHQCSRIDLLSSLIYVSQN
restoration of response to TNF (TNF killing) by transfected RIP constructs [2]: restored

Reference: patent publication US20080019909A1, “Modulation of Programmed Necrosis” (priority 2003, published 2008)
